Experimental data from patent publication US20230303695A1 (SHANGHAI XBH BIOTECHNOLOGY, published 2023).

B1: Antibody C33 (1C2) (antibody, V domains shown)
VH: QVQLVESGGGVVQPGRSLRLSCAASGFTFSTYGMHWVRQAPGKGLEWVAVIWDDGSYKYYGDSVKGRFTISRDNSKNTLYLQMNSLRAEDTAVYYCARDGSGWGYAFDIWGQGTMVTVSS
VL: DIQLTQSPSSLSASVGDRVTITCQASQDISEYLNWYQHKPGKAPNPLVFDAANLETGVPPRFSATGSGTDFSLTITSLQPEDFATYYCQQYDSFPYTFGQGTRLDIK
notes: also called mAb-1C2 (C33)
B2: Antibody C38 (2B4) (antibody, V domains shown)
VH: EVQLVESGGGLEQPGGSLRLSCAGSGFTFRDYAMTWVRQAPGKGLEWVSSISGSGGNTYYADSVKGRFTISRDNSKNTLYLQMNSLRAEDTAIYYCARGEYSSGWPSWFDPWGQGTLVTVSS
VL: EIVLTQSPSSLSASVGDRVTISCRASRTVGTFLNWYQQRPGKPPQALILGVSILEGGVSSRFSGAGSGTEFSLTISSLQPEDIGTYYCQQSHDVPRTFGQGTKVDLRR
notes: also called mAb-2B4 (C38)
B3: KIR3DL1 D1 construct on CT26 cells (receptor, human, UniProt P43629 22-118, looked up)
chain: HMGGQDKPFLSAWPSAVVPRGGHVTLRCHYRHRFNNFMLYKEDRIHIPIFHGRIFQESFNMSPVTTAHAGNYTCRGSHPHSPTGWSAPSNPVVIMVT
notes: domain: D1; also called D1/D3 construct
B4: KIR3DL2 D3 construct on CT26 cells (receptor, human, UniProt P43630 222-340, looked up)
chain: EKPSLSAQPGPTVQAGENVTLSCSSWSSYDIYHLSREGEAHERRLRAVPKVNRTFQADFPLGPATHGGTYRCFGSFRALPCVWSNSSDPLLVSVTGNPSSSWPSPTEPSSKSGICRHLH
notes: domain: D3; also called D1/D3 construct
B5: KIR3DL2 D1 construct on CT26 cells (receptor, human, UniProt P43630 22-118, looked up)
chain: LMGGQDKPFLSARPSTVVPRGGHVALQCHYRRGFNNFMLYKEDRSHVPIFHGRIFQESFIMGPVTPAHAGTYRCRGSRPHSLTGWSAPSNPLVIMVT
notes: as for B3
B6: KIR3DL1 D3 construct on CT26 cells (receptor, human, UniProt P43629 222-340, looked up)
chain: EKPSLSAQPGPKVQAGESVTLSCSSRSSYDMYHLSREGGAHERRLPAVRKVNRTFQADFPLGPATHGGTYRCFGSFRHSPYEWSDPSDPLLVSVTGNPSSSWPSPTEPSSKSGNPRHLH
notes: as for B4
B7: KIR2DL5B expressed on CT26 cells (receptor, human, UniProt Q8NHK3 22-375, looked up)
chain: HEGGQDKPLLSAWPSAVVPRGGHVTLLCRSRLGFTIFSLYKEDGVPVPELYNKIFWKSILMGPVTPAHAGTYRCRGSHPRSPIEWSAPSNPLVIVVTGLFGKPSLSAQPGPTVRTGENVTLSCSSRSSFDMYHLSREGRAHEPRLPAVPSVDGTFQADFPLGPATHGGTYTCFSSLHDSPYEWSDPSDPLLVSVTGNSSSSSSSPTEPSSKTGIRRHLHILIGTSVAIILFIILFFFLLHCCCSNKKNAAVMDQEPAGDRTVNREDSDDQDPQEVTYAQLDHCVFTQTKITSPSQRPKTPPTDTTMYMELPNAKPRSLSPAHKHHSQALRGSSRETTALSQNRVASSHVPAAGI
notes: whole, on cells
B8: Antibody C36 (1B4) (antibody, V domains shown)
VH: EVQLLESGGGLVQPGGSLRLSCAASGFTFSSYAMSWVRQAPGKGLEWVSGITGSGGSTYYADSVKGRFTISRDNSKNTLYLQMNSLRAEDTAIYYCARGGALDIWGQGTMVTVSS
VL: DIQMTQSPSSLSASVGDRVTITCRASQVIHNYLAWYKQKPGQAPKLLIYSASSLQSGVPSRFSGSGSGTDFTLTISSLQPEDFATYYCQQSYSTPLTFGGGTKVEIKR
notes: also called mAb-1B4 (C36)

Legend:
[1] = target: T1, D1 domain of IGSF8 (recombinant protein) (human, UniProt Q969P0 28-149, limits assumed); assay: SPR, Biacore T100
T1 construct: domain: D1 (Ig V-set domain); also called Ig V-set domain of IGSF8
T1 sequence (looked up): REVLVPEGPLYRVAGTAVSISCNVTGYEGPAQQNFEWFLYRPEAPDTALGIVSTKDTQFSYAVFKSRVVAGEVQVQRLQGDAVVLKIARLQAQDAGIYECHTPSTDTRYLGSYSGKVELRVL

[2] = target: T2, full-length IGSF8 (recombinant antigen of the SPR screen; IGSF8 target antigen of the phage panning) (human, UniProt Q969P0 28-579, limits assumed); assay: SPR, Biacore T100
T2 sequence (looked up): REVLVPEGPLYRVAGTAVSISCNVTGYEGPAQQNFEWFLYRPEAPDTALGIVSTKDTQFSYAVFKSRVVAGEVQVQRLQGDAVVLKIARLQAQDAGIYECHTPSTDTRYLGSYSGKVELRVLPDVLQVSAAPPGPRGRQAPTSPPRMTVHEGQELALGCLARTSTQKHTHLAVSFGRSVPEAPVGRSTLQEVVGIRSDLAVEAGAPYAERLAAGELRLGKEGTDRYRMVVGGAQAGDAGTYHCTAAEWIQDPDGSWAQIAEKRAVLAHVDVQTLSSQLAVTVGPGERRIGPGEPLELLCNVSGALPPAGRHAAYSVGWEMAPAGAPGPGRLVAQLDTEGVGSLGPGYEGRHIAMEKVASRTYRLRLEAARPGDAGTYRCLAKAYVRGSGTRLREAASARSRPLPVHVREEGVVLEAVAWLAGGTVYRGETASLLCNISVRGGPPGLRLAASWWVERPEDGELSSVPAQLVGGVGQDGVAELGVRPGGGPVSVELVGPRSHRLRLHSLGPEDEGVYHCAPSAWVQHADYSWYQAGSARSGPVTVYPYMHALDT

[3] = target: T3, human IGSF8 expressed on the cell surface (human, UniProt Q969P0 28-613); assay: FACS on CT26 cells with forced surface expression of human IGSF8
T3 construct: whole, on cells; also called human IGSF8 on CT26 cells; IGSF8 on MC38 cells
T3 sequence (looked up): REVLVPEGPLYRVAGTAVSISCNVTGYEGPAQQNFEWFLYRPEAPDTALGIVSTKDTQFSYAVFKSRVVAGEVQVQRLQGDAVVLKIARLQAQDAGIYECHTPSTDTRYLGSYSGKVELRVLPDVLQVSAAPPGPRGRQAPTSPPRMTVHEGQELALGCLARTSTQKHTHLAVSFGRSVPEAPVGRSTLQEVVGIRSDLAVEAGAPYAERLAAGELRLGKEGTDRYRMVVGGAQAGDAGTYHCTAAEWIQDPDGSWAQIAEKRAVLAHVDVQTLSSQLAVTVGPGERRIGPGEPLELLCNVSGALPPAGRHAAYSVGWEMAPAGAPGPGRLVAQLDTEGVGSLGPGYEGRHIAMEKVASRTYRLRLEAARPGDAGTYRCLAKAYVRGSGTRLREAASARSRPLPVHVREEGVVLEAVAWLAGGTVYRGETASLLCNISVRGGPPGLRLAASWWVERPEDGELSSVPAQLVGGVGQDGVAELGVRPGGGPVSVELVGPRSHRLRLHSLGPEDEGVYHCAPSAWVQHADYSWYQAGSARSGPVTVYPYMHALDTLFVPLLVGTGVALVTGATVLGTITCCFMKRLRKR
Method: For antibody binding assays based on cell-expressed antigens, 100,000 cells overexpressing the antigen (either the full-length IGSF8 or the D1 domain thereof) were washed with PBS buffer containing 2% FBS, and then incubated with 100 μL of antibodies or IgG of different concentrations for 30 minutes on ice. Cells were then washed twice with wash buffer, and incubated with 100 μL of 1:100 anti-human Fc-PE antibody for 15 minutes on ice. Cells were washed twice with wash buffer and analyzed on a FACS analyzer (CytoFlex, Beckman).

[4] = target: T4, IGSF8 protein without D1 domain (human, UniProt Q969P0 150-579, limits assumed); assay: FACS, single antibody dose, IGSF8-D24 (D2-D4 with TM, no D1) expressed on CT26 cells
T4 construct: domain: D2-4; also called D24; D2-4
T4 sequence (looked up): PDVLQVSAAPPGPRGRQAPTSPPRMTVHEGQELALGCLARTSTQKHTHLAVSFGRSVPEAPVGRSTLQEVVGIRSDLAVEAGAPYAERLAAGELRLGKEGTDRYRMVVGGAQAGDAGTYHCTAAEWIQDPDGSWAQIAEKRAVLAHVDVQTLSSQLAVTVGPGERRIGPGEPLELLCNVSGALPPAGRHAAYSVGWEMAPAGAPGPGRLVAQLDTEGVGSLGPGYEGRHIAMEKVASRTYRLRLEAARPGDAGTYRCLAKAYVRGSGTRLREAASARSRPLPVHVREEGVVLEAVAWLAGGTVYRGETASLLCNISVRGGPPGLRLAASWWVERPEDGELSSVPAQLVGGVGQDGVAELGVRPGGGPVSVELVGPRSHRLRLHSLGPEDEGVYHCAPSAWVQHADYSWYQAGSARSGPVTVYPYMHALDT

[5] = target: T5, recombinant human IGSF8 extracellular domain tagged by a human Fc region (IGSF8-hFc) (human, UniProt Q969P0 28-579, biotin label in Examples 17, 18 and 28 (site not given)); assay: FACS, biotin-labelled IGSF8 on CT26 cells expressing KIR3DL1/2 constructs, MFI normalized to Thy1.1
T5 construct: also called IGSF8-Fc fusion protein; IGSF8-hFc-biotin; not shown: human Fc region
T5 sequence: T2 sequence (looked up)

[6] = target: T5, recombinant human IGSF8 extracellular …; assay: FACS, biotin-labelled IGSF8-hFc on CT26 cells expressing the KIR, MFI normalized to Thy1.1
Method: For this experiment, different human KIR receptors (KIR2DL1, KIR2DL2, KIR2DL3, KIR2DL4, KIR2DL5A, KIR2DL5B, KIR3DL1, KIR3DL2, KIR3DL3) were first cloned into a proprietary lentiviral vector containing a thy1.1 tag (FIG. 17A). Then mouse CT26 cells, were transducted by these lentiviral constructs, and IGSF8 binding was tested with biotin-labelled recombinant IGSF8 hFc fusion protein. The mean fluorescence intensity (MFI) of IGSF8 binding to different CT26 cells were normalized by the expression of different KIRs on CT26 cells using an anti-thy1.1 mAb (Biolegend) via flow cytometry.
KLRC1 also contains a ITIM motif in its intracellular domain, and was known to be a inhibitory receptor of NK or CD8⁺ T cells as part of a heterodimer with KLRD1 on the cell surface. […] Specifically, 100,000 CT26 cells overexpressing the antigens (KIRs or KLRs) were washed with PBS buffer containing 2% FBS, and incubated with 100 μL IGSF8 recombinant proteins or antibodies (5 μg/mL) for 30 minutes on ice. Cells were then washed twice with wash buffer, and incubated with 100 μL of 1:100 anti-human Fc-PE antibody for 15 minutes on ice. Cells were washed twice with wash buffer and analyzed on a FACS analyzer (CytoFlex, Beckman). In these experiments, the mean fluorescence intensity (MFI) of IGSF8 binding to different CT26 cells were normalized by the expression of different KLRs on CT26 cells using an anti-thy1.1 mAb via flow cytometry.

[7] = target: T6, mouse IGSF8 expressed on CT26 cells (mouse, UniProt Q8R366 26-611); assay: FACS on CT26 cells
T6 construct: whole, on cells
T6 sequence (looked up): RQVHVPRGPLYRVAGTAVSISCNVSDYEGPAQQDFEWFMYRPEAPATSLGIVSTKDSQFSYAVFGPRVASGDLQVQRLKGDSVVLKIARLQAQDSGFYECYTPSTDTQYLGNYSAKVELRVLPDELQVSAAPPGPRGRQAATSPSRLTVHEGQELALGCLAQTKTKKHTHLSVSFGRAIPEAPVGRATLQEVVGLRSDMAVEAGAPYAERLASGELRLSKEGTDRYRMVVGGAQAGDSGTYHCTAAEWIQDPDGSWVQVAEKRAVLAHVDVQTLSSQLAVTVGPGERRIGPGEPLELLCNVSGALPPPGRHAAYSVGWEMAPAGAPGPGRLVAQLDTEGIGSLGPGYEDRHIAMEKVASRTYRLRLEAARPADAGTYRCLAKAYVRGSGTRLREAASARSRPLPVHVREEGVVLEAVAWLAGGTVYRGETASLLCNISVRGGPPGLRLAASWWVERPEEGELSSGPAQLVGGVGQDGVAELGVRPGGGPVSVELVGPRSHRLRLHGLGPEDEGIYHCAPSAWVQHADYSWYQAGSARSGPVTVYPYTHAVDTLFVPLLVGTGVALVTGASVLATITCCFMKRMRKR

Binder | Kd [1] [nM] | Kd [2] [nM] | EC50 [3] [nM] | binding result [5] | other results
B1 | < 50 | 33.2 | 6.2 | – | binding result [4]: no binding (tested: not shown on the sheet)
B2 | < 50 | 3.83 | 4.64 | – | binding result [4]: no binding (tested: not shown on the sheet)
B3 | – | – | – | no binding (tested: not shown on the sheet) | –
B4 | – | – | – | no binding (tested: not shown on the sheet) | –
B5 | – | – | – | no binding (tested: not shown on the sheet) | –
B6 | – | – | – | no binding (tested: not shown on the sheet) | –
B7 | – | – | – | – | binding result [6]: no binding
B8 | < 50 | 4.57 | 2.02 | – | binding result [7]: binds
